The values that follow come from PMC8584381, “A Small Step, a Giant Leap: Somatic Hypermutation of a Single Amino Acid Leads to Anti-La Autoreactivity” (International Journal of Molecular Sciences, 2021).

Test [1] deals with T1, native human La protein of HeLa total cell extract (Homo sapiens (HeLa, endogenous), UniProt P05455).
T1 construct: La protein (La/SS-B), human, endogenous in HeLa cells; also called native La protein; source: endogenous, HeLa total extract
Nature of the test: co-IP; HeLa total extract (50 nM Tris/HCl pH 8.0, 150 mM NaCl, 1% IGEPAL CA-630) mixed with 2 µg purified ab and Protein G MicroBeads, on ice 30 min; La detected by blot with anti-La mab 5B9. The settings on record: one partner purified.

In test [2] the target is T2, recombinant human La protein (Homo sapiens, UniProt P05455).
T2 construct: La protein (La/SS-B, Sjögren's syndrome associated antigen B), human; It calls wildtype La an undefined mixture of oxidized and reduced protein; also called rh-La; wildtype La protein; source: bacteria lysates, purified (Ni-NTA)
Kind of test: far-Western, overlay or dot blot; SDS-PAGE/immunoblotting under denaturing conditions: 2 µg rh-La or TCM-La on nitrocellulose, IgG4 ab constructs at 1.5 µg/mL in Blocking Solution, detected with anti-human IgG4-HRP. The settings on record: both partners purified. On the technique in general: A western blot detects proteins with antibodies after separation by electrophoresis.

Residue numbers refer to the chain shown, from its start. Names may count otherwise.

T1 sequence (P05455 whole entry): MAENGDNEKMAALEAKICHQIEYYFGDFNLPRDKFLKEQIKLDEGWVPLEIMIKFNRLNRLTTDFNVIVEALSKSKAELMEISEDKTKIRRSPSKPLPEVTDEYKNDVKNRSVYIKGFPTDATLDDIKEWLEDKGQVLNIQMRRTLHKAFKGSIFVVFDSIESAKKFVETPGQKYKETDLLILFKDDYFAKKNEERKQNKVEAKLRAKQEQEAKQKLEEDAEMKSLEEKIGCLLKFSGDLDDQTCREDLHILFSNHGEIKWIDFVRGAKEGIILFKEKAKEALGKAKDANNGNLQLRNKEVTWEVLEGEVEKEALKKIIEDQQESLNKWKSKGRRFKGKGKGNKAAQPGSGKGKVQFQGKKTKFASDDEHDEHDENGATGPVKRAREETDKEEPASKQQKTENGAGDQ
T2 sequence (P05455 whole entry): as above

B1: murine 312B-IgG4 (scFv of the mature 312B VH and VL fused to human IgG4 Fc) (Fc fusion, mouse)
VH: QVKLQESGAELMKPGSSVKFSCKAAGYTFTDYWIEWLKQRPGHGLEWIGEILPGSVSIKYNEKFKGKATFTADTSSNTAYMQLSSLTSEDSAVYYCARSRSIYDGYFYYWGQGTTLTVSS
VL: DIVMTQSTASLSASVGETVTITCRASENIYTYLAWYQQKQGKSPQLLVYNAKTLAEGVPSRFSGSGSGTQFSLRINSLQPEDFGSYYCQHHYGTPYTFGGGTKLEIK
notes: flexible linker of three G4S motifs; VH-VL orientation; N-terminal murine Ig kappa leader for secretion; also called mature ab; source: permanent 3T3 production cell line, purified from cell culture supernatant (protein A); not shown: Fc (human IgG4, CH2 and CH3), C-terminal, kept
B1: the binding result in test [1] and in test [2] was “binds” in each case.

B2: mutated germline 312B-IgG4 with an aspartate to tyrosine mutation in the CDR3 region of the VH domain (Fc fusion, mouse)
VH: QVQLQQSGAELMKPGASVKLSCKATGYTFTGYWIEWVKQRPGHGLEWIGEILPGSGSTNYNEKFKGKATFTADTSSNTAYMQLSSLTTEDSAIYYCARSRSIYDGYFYYWGQGTTLTVSS
VL: B1 VL with V3Q, T8P, T31S, R74K
notes: as the germline VH of m6 with the aspartate in CDR3 replaced by tyrosine; flexible linker of three G4S motifs; as the germline VL of m6; VH-VL orientation; N-terminal murine Ig kappa leader for secretion; also called gl312B-D > Y; source: permanent 3T3 production cell line, purified from cell culture supernatant (protein A); not shown: Fc (human IgG4, CH2 and CH3), C-terminal, kept
For the molecule B2, the binding result in test [1] and in test [2] was “binds” throughout.
